We go through two molecules from patent US8440430, “Modified dicer polypeptide and methods of use thereof” (The Regents of the University of California).

The target in data set [1] is ΔdsRBD human Dicer (Homo sapiens, UniProt Q9UPY3 SEQ:1-1922, del1844-1922). As to the kind of experiment: filter; within three-fold of full-length; dsRBD deletion did not significantly affect binding; 5 mM EDTA. As to conditions: tags: N-terminal His6 removed by site-specific protease, baculovirus/Sf9. The procedure:
A serial dilution of proteins were incubated in a buffer containing 20 mM Tris-Cl (pH 7.5), 25 mM NaCl, 5 mM EDTA, 1 mM dithiothreitol (DTT), 1% glycerol and ~0.5-1 nM (1500 c.p.m.) of ^32P-labeled duplex RNA substrate (one strand was labeled) at room temperature for 60 min […] After this incubation, 25 µl of each reaction were used for dot-blotting, which was conducted in a dot-blot apparatus equipped with 3 membranes of Tuffryn, Protran and Nytran (from top to bottom). After dried, the bound (on Protran) or free (on Nytran) RNAs were detected and quantified with Phosphoimager (GE Healthcare). Percentage of bound RNAs was calculated by 100 multiplied by the ratio of radioactivity (volumes) detected on the Protran membrane over the total input volumes (radioactivity). The bound RNAs (%) (Y-axle) were plotted against protein concentrations (X-axle). K_d was determined by global fitting to the equation of kobsd = (kmax ×[Dicer])(K_{1/2} + [Dicer])^-1, here $kobsd$ is the observed rate constant at a particular protein concentration, $kmax$ is the maximal rate constant with saturating protein, and K_{1/2} (or K_d) is the protein concentration that provides half the maximal rate. Curve fitting was conducted with KleidaGraph (Synery Software).
RNA. […] These values are similar to those measured previously (Provost et al, 2002; Vermeulen et al, 2005).

In data set [2] the target is ΔDUF human Dicer (lacks DUF283) (Homo sapiens, UniProt Q9UPY3 SEQ:1-1922, del630-709). The data set is described as follows: filter; within three-fold of full-length; 5 mM EDTA; exact Kd only in figure. As to conditions: tags: N-terminal His6 removed by site-specific protease, baculovirus/Sf9. Here is the method:
After dried, the bound (on Protran) or free (on Nytran) RNAs were detected and quantified with Phosphoimager (GE Healthcare). Percentage of bound RNAs was calculated by 100 multiplied by the ratio of radioactivity (volumes) detected on the Protran membrane over the total input volumes (radioactivity). The bound RNAs (%) (Y-axle) were plotted against protein concentrations (X-axle). K_d was determined by global fitting to the equation of kobsd = (kmax ×[Dicer])(K_{1/2} + [Dicer])^-1, here $kobsd$ is the observed rate constant at a particular protein concentration, $kmax$ is the maximal rate constant with saturating protein, and K_{1/2} (or K_d) is the protein concentration that provides half the maximal rate. Curve fitting was conducted with KleidaGraph (Synery Software).
RNA. […] These values are similar to those measured previously (Provost et al, 2002; Vermeulen et al, 2005). […] The protein lacking both the DExD/H-box domain and the dsRBD (2DD) bound ~3-4 fold more weakly to either substrate relative to full-length Dicer (FIG. 3A-C). It is possible that this severely truncated protein is generally destabilized, or that the DExD/H-box domain plays a small but measurable role in substrate binding.

The mark [3] stands for this setting: label: 5'-32P on one strand, perfect duplex with 2-nt 3' overhangs on both ends.

Sequence of ΔdsRBD human Dicer (Q9UPY3 1-1843, stated change not applied): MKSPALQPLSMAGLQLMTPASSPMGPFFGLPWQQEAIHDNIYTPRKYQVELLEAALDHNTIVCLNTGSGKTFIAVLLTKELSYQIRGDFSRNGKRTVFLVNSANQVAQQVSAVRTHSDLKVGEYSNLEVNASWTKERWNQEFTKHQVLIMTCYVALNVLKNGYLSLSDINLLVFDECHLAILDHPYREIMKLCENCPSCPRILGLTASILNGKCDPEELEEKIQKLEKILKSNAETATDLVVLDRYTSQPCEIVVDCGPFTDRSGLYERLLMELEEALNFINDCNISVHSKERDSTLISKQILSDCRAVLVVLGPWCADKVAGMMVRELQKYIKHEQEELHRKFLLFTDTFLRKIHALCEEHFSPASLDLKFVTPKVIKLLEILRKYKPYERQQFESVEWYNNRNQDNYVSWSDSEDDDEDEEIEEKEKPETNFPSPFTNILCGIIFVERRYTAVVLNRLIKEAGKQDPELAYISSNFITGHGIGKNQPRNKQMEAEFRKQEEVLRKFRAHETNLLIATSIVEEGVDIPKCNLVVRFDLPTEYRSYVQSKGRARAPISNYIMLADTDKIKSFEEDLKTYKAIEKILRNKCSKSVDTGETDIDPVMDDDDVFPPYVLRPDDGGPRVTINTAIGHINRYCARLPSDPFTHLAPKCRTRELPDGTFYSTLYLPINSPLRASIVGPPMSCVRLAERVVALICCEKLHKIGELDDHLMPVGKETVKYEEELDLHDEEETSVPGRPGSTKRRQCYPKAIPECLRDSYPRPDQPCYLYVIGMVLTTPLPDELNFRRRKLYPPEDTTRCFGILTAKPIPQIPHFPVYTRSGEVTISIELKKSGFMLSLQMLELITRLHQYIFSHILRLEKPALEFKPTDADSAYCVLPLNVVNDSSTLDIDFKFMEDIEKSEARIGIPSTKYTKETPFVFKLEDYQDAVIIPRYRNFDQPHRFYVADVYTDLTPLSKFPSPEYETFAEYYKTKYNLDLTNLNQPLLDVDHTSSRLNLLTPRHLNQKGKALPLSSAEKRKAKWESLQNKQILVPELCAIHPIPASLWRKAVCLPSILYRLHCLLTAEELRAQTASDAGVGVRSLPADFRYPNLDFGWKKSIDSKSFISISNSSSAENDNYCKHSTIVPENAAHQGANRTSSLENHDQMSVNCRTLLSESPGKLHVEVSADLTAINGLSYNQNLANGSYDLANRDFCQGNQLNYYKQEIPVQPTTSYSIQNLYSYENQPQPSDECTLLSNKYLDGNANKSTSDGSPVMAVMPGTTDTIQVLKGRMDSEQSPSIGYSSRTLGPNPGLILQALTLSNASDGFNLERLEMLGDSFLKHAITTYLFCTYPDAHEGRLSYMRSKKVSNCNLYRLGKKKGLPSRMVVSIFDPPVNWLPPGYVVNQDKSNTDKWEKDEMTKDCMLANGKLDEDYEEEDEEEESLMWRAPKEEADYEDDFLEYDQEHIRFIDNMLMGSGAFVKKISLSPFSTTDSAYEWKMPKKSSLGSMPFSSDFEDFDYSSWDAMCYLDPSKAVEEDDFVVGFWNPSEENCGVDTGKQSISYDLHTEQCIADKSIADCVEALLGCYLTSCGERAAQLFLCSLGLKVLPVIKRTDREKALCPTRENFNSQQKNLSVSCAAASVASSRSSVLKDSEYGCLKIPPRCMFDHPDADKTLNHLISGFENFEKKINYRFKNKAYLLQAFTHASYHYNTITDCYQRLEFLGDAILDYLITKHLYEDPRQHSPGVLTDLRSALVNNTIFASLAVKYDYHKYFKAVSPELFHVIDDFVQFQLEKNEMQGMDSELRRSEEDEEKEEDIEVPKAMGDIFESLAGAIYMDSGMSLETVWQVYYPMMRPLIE

B1: 37ab duplex RNA (dsRNA)
RNA 1: UGAGGUAGUAGGUUGUAUAGUUUGAAAGUUCACGAUU
RNA 2: UCGUGAACUUUCAAACUAUACAACCUACUACCUCAUU
In the case of B1, the “Kd relative to full-length Dicer” value in data set [1] (setting [3]) was ≤ 3 fold of full-length Kd (75 nM). In addition, in data set [2] (setting [3]), the “Kd relative to full-length Dicer (fold)” value was ≤ 3 fold of full-length Kd (75 nM).

B2: pre-hlet-7 hairpin RNA (ssRNA)
RNA: UGAGGUAGUAGGUUGUAUAGUUUUAGGGUCACACCCACCACUGGGAGAUAACUAUACAAUCUACUGUCUUACC
On to B2, for which, in data set [1] (label: 5'-32P, hairpin), the “Kd relative to full-length Dicer” value is ≤ 3 fold of full-length Kd (30 nM). In addition, the “Kd relative to full-length Dicer (fold)” value in data set [2] (label: 5'-32P, hairpin) is ≤ 3 fold of full-length Kd (30 nM).
